The supplement of paper PMC9732359
± gives the uncertainty stated by the source.

Experiment: protein stability index of a GFP-peptide fusion (yeast GPS) (PSI 1-4); higher = more stable; sorted into four equal gates, so the index is relative within each strain
Conditions: doa10∆
How it was run: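 Tiled 17-residue peptides from yeast proteins were fused downstream of GFP on a plasmid that also expresses Cherry, and the pooled library was carried in yeast. Mid-log cultures grown in leucine-free medium were sorted into four equal gates by GFP/Cherry fluorescence ratio. Plasmids from each gate were PCR-amplified and Illumina-sequenced, and reads were assigned to strains by barcodes. Each peptide's protein stability index is the sum, over gates, of the gate's read frequency multiplied by its gate number.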

First: NSSESDEEESNDEKQKA [RPN13]
Second: NSTHLLPLQPIEIDYTV [SNF12]
The protein stability index of the first is higher: 3.32 ± 0.17 for the first, 2.34 ± 0.044 for the second.

Compared with NSVRNSLLLAHFFSKSC [NUT1], NTEEKAELQSNLQVELL [YGL100W/SEH1] is higher in protein stability index: 1.74 ± 0.05 for the first, 3.06 ± 0.064 for the second.

Compared with NTFGSSSLFNNSTNSNT [YJL041W/NSP1], NTFNYDVKISNDFFDNG [RPN4] is lower in protein stability index: 2.42 ± 0.06 for the first, 1.94 ± 0.08 for the second.

NTGDGSISTYKDILNLA [ECM29] and NTGLLNKANIQALIHGL [RPN11] are within error of each other in protein stability index: 3.03 ± 0.083 for the first, 3.02 ± 0.14 for the second.

First: NTHLGARNVQVHQEPYV [RPS0A]
Second: NTIIRDGSKMLKRADYT [RPN14]
The protein stability index of the first is lower: 2.06 ± 0.087 for the first, 2.87 ± 0.096 for the second.

NTLGKGQNCLDIDGIMD [SNU114] and NTLRKCYPQFAERDSQG [UBP6] are within error of each other in protein stability index: 3.3 ± 0.23 for the first, 2.92 ± 0.17 for the second.

Compared with NTNLMNGVNVQIDQLNR [GRR1], NTPLVGAAFKVISNLVP [YJL039C/NUP192] is lower in protein stability index: 2.85 ± 0.052 for the first, 1.96 ± 0.081 for the second.

NTSAATVHTATSSSIIL [SSN2] and NTTDPLGHTKAALGEVA [SIR2] are within error of each other in protein stability index: 2.41 ± 0.053 for the first, 2.51 ± 0.065 for the second.

First: NTTKPAFGGLNFGGGNN [YJL041W/NSP1]
Second: NTVVGISGDISDMQHIE [PRE4]
The protein stability index of the first is lower: 2.71 ± 0.054 for the first, 2.94 ± 0.12 for the second.

First: NVDQTKTQCPNYDTCGG [RPC11]
Second: NVEKPSSKPAFNLISNA [YLR335W/NUP2]
The protein stability index of the first is higher: 3.48 ± 0.13 for the first, 3.1 ± 0.056 for the second.

Compared with NVLLLDSNGDFNEDQLF [RRP46], NVMLEKIKDNKEKIKNN [RPT5] is lower in protein stability index: 3.17 ± 0.064 for the first, 2.78 ± 0.12 for the second.

Going from NVNSRNQLVEPNRIKLS [SRB5] to NVPWPQNSYADKVTSQA [RPP1], the protein stability index falls from 2.29 ± 0.061 to 2.04 ± 0.094.

Going from NVSNTFNKTTNIDINNE [YJL041W/NSP1] to NVTSFMPFWKFFMKNFP [SRB8], the protein stability index falls from 3.1 ± 0.068 to 1.47 ± 0.053.

First: NVVEVMDMNEIEDKENS [RPT5]
Second: NWRGREHWKVRNFKKAN [BRN1]
The protein stability index of the first is lower: 3.02 ± 0.087 for the first, 3.43 ± 0.12 for the second.

Going from NWSKEDLQKLLKGIQEF [SWI3] to NYASVYPVVEVERGRVG [RRP43], the protein stability index rises from 3.27 ± 0.068 to 3.48 ± 0.14.

Going from NYEDVGRFLRVPKEGLF [BRR2] to NYEIVFDTVSNKLFTEP [YMR129W/POM152], the protein stability index falls from 3.42 ± 0.076 to 2.97 ± 0.055.

Compared with NYIINDIKKNNKIKLNI [SRB8], NYNSTSRSTEKKNDMNT [SIR4] is lower in protein stability index: 3.16 ± 0.096 for the first, 2.33 ± 0.061 for the second.

First: NYTKDNEYYPMCEQALS [YCS4]
Second: NYVAVGDVSNLPYLDEL [QCR2]
The protein stability index of the first is lower: 2.25 ± 0.066 for the first, 3.13 ± 0.087 for the second.

First: NYYSNKSNSTGNISSST [REC8]
Second: NYYYLFDKKSFFNGKAL [PRP8]
The protein stability index of the first is higher: 2.79 ± 0.1 for the first, 2.55 ± 0.046 for the second.

Going from PAFSFGISNGSESKDSD [YLR335W/NUP2] to PAFSFNSSVGNKTDAQA [YJL041W/NSP1], the protein stability index falls from 3.23 ± 0.093 to 2.82 ± 0.14.

Going from PAFSNSNGFNNVTFGSK [YMR153W/NUP53] to PAFTFGAQKDNEKKTEE [YJL041W/NSP1], the protein stability index rises from 2.68 ± 0.054 to 3.35 ± 0.2.

PAGTSLFGNNAGNTTTG [YGL172W/NUP49] and PAPINSLSRDFVMKTRR [SNU114] are within error of each other in protein stability index: 2.98 ± 0.16 for the first, 3.15 ± 0.081 for the second.

First: PCLSRSCTKCPQIVVPD [DIS3]
Second: PDFKPWEHTAAEDQILA [SRB8]
The protein stability index of the first is lower: 2.42 ± 0.034 for the first, 2.83 ± 0.12 for the second.

PDGSFEDWSVEELIVDL [RPO26] and PDGVVVHRDDPALVGKL [SNF6] are within error of each other in protein stability index: 3.42 ± 0.17 for the first, 3.3 ± 0.071 for the second.

Going from PEDAQLLLAANTHLGAR [RPS0A] to PEELARILQQLKLDKII [RGR1], the protein stability index rises from 1.63 ± 0.058 to 2.51 ± 0.059.

First: PEGLLKSLWDYVKKNTE [TAF14]
Second: PEILRFKVYEPLLLVGL [RPS16A]
The protein stability index of the first is higher: 3.01 ± 0.17 for the first, 2.01 ± 0.12 for the second.

Going from PESIDTILSSKLSNIWM [SRB2] to PETGDHVVGRIAEVGNK [RRP4], the protein stability index rises from 2.72 ± 0.08 to 3.27 ± 0.076.

Going from PEYAKVGDFLLQYANNA [SIN4] to PFKFGKTSEKSENHTES [YOR098C/NUP1], the protein stability index rises from 2.4 ± 0.085 to 2.94 ± 0.16.

Going from PFSFSSATSTTEQTKSK [YLR335W/NUP2] to PGHEMEDFLDKSYYLNT [AAR2], the protein stability index rises from 2.99 ± 0.06 to 3.29 ± 0.07.

Going from PGMPNMPGMPNMPGMPK [SRP54] to PGPLPDTDSKPSSQSQN [YLR018C/POM34], the protein stability index falls from 3.37 ± 0.15 to 3.06 ± 0.079.

Going from PGQKMSLFSHRKHTRGD [BRN1] to PHSLATKTTGKCGSVTV [RPS2], the protein stability index falls from 3.34 ± 0.23 to 1.2 ± 0.12.

First: PIDDTMTLLTDSLRKLY [MTW1]
Second: PIKNRKNDTHYLLPDDF [BRN1]
The protein stability index of the first is lower: 1.89 ± 0.067 for the first, 2.98 ± 0.079 for the second.

Compared with PIMFQDFDDSTAQEINF [IRR1], PISAVLRGCKFLQSVDI [GRR1] is lower in protein stability index: 2.81 ± 0.057 for the first, 2.08 ± 0.041 for the second.

Compared with PISEKGLTLSTTNLDID [RPP1], PITGASLDLIKERRSLK [RPL24A] is higher in protein stability index: 2.82 ± 0.052 for the first, 3.04 ± 0.097 for the second.

Compared with PITSETAMKKVEDGNIL [RPL25], PKARQELPTQLALEIIV [RRP46] is lower in protein stability index: 3.05 ± 0.16 for the first, 1.77 ± 0.046 for the second.

First: PKASSAKFFLNVSDEQL [ITC1]
Second: PKDPSNVETYEQILQWV [BRR2]
The protein stability index of the first is higher: 3.1 ± 0.094 for the first, 2.77 ± 0.079 for the second.

Going from PKMKDEEYDDDDDNSNV [SNF2] to PKNIEPPLTSQYSTRHD [SWI3], the protein stability index falls from 3.4 ± 0.095 to 3.07 ± 0.048.

Compared with PKNQQYRAFGSIWQVKD [MED7], PKNSKTPQSKGFVRNSF [RPO31] is higher in protein stability index: 2.45 ± 0.084 for the first, 3.17 ± 0.15 for the second.

Compared with PKNYSLHGLRSFYDAIF [YJL039C/NUP192], PKSTKGKILTIKQQQQQ [YML103C/NUP188] is lower in protein stability index: 2.53 ± 0.042 for the first, 2.39 ± 0.038 for the second.

Compared with PKYIDELKTRDATNTSY [SWP82], PLLARKQFVVDVLHPNR [RPS24A] is lower in protein stability index: 2.68 ± 0.095 for the first, 1.58 ± 0.14 for the second.

Compared with PLLESFITFSLDDWISI [IRR1], PLLPIVEELMKKRRGSR [SNU114] is lower in protein stability index: 3.04 ± 0.078 for the first, 2.4 ± 0.11 for the second.

Going from PLLSLDVTPISMFGSDQ [RPN4] to PLLYNSLCTVWKPNPSY [SRB5], the protein stability index falls from 2.75 ± 0.12 to 1.99 ± 0.11.

First: PLPPRIDPSVTMMTVEE [RPT1]
Second: PLPTPFKVDDNVDFPSA [RPN2]
The protein stability index of the first is lower: 2.16 ± 0.08 for the first, 2.94 ± 0.054 for the second.

Going from PLSQDELISLRKILESS [YIL149C/MLP2] to PMVSVMKMDKSPTESYS [RPT2], the protein stability index falls from 2.45 ± 0.077 to 1.64 ± 0.11.

PNEFEIQLSTVNRQSPL [RGR1] and PNELSQILTVDPKTSLR [RPC82] are within error of each other in protein stability index: 2.19 ± 0.063 for the first, 2.2 ± 0.069 for the second.

Compared with PNPNNMKTVQSPMGAQP [GAL11], PNRIKLSKEVPFSYLID [SRB5] is lower in protein stability index: 3.21 ± 0.13 for the first, 2.44 ± 0.062 for the second.

Compared with PNSSANNNPLQQQSSQN [GAL11], PPAYALLGSCQTDGMGL [RPC25] is lower in protein stability index: 2.99 ± 0.051 for the first, 2.15 ± 0.11 for the second.

Going from PPPAPHNLHPQIGQVPL [SNF5] to PQDILSKLYLLLARVFE [SNF11], the protein stability index falls from 2.96 ± 0.059 to 2.14 ± 0.044.

PQENDLESKMSEVGDAF [SMC3] and PQIRQEIEQLDQYIQKQ [YGL172W/NUP49] are within error of each other in protein stability index: 2.73 ± 0.2 for the first, 2.7 ± 0.061 for the second.

First: PQKYVLHPQLHEVQYQE [SIN4]
Second: PQQNKTPFSFGTANNNS [YJL041W/NSP1]
The protein stability index of the first is lower: 1.49 ± 0.13 for the first, 3.28 ± 0.046 for the second.

Going from PQSAPNQMGMGTNNGMS [YOR098C/NUP1] to PRDLLRVIIQELRFPSP [PRP28], the protein stability index falls from 3.4 ± 0.12 to 1.74 ± 0.047.

First: PRGVLLYGPPGTGKTML [RPT3]
Second: PRQLHNTHWGLVCPAET [RPB2]
The protein stability index of the first is higher: 3.07 ± 0.089 for the first, 1.6 ± 0.089 for the second.

In the case of PRSDAQAIKEASYVNIP [RPS0A], the protein stability index is reported as 2.88 ± 0.058.
